Earlier results, collected in article PMC3907174.

Target: RBP (Homo sapiens) (UniProt P02753)

Kd: 50 nM
Substance: STRA6 (from UniProt Q9BX79)
